Assays:
[1] = target: soluble hFcγRIIIA FF (human) (UniProt P08637); assay: SPR Biacore T100; reference of the fold not given
[2] = target: soluble hFcγRIIIA FV (human) (UniProt P08637); assay: SPR Biacore T100; reference of the fold not given
[3] = target: soluble hFcγRIIA^131H (human) (UniProt P12318); assay: SPR Biacore T100; reference of the fold not given
soluble hFcγRIIB (human) [4] = target: soluble hFcγRIIB (human) (UniProt P31994); assay: SPR Biacore T100; reference of the fold not given
Sequence of soluble hFcγRIIB (human) (P31994 43-217 limits assumed): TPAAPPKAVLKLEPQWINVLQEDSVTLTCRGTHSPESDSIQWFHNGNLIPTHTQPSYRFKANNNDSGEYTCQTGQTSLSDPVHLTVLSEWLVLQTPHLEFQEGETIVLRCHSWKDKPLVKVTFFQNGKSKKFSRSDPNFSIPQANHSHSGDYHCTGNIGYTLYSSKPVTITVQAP

[5] = target: soluble hFcγRIIA^131R (human) (UniProt P12318); assay: SPR Biacore T100; reference of the fold not given
Sequence of soluble hFcγRIIA^131R (human) (P12318 34-217 H167R): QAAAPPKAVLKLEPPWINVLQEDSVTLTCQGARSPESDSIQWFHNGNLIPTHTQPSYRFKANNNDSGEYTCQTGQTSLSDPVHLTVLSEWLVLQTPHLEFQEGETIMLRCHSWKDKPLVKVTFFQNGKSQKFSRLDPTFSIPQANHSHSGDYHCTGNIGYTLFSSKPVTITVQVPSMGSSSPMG

[6] = target: soluble hFcγRIIIA FF (human) (UniProt P08637); assay: SPR Biacore T100, steady state, antibody immobilised
[7] = target: soluble hFcγRIIIA FV (human) (UniProt P08637); assay: as above
[8] = target: soluble hFcγRIIA^131H (human) (UniProt P12318); assay: as above
soluble hFcγRIIB (human) [9] = target: soluble hFcγRIIB (human) (UniProt P31994); assay: as above
[10] = target: soluble hFcγRIIA^131R (human) (UniProt P12318); assay: as above
C1q (Calbiochem) [11] = target: C1q (Calbiochem) (UniProt P02745); assay: as above
Sequence of C1q (Calbiochem) (P02745 23-245 limits assumed, chain 1 of 3): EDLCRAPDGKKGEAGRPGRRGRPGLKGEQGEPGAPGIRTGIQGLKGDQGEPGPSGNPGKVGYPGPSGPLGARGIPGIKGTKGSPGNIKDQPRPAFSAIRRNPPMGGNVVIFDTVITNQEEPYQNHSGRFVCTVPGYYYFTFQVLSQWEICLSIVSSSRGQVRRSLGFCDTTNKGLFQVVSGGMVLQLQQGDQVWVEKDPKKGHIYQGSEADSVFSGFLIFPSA
Sequence of C1q (Calbiochem) (P02746 28-253 limits assumed, chain 2 of 3, further chain): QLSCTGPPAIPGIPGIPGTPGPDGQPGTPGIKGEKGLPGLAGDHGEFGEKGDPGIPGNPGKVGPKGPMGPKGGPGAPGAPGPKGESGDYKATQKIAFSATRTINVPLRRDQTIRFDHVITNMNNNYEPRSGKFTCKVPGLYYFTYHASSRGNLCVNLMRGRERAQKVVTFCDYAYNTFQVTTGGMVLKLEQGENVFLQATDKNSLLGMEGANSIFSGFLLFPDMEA
Sequence of C1q (Calbiochem) (P02747 29-245 limits assumed, chain 3 of 3, further chain): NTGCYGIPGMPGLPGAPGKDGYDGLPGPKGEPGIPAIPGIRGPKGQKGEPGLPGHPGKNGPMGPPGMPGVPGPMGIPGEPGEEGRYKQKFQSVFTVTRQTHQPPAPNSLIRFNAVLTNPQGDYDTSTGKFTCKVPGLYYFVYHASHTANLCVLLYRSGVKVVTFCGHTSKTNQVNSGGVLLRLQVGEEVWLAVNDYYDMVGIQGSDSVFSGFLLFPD

[12] = target: soluble hFcγ-receptor RIa (human) (UniProt P12314); assay: SPR Biacore T100; reference of the fold not given
Sequence of soluble hFcγ-receptor RIa (human) (P12314 16-288 limits assumed): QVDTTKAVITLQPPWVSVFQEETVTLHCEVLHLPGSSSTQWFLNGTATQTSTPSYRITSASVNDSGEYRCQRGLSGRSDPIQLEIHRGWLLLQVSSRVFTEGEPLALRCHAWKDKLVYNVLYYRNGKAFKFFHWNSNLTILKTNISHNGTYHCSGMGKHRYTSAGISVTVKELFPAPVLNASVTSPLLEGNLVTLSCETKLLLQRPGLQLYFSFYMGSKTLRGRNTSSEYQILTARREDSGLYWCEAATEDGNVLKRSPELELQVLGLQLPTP

C1q (Calbiochem) [13] = target: C1q (Calbiochem) (UniProt P02745); assay: SPR Biacore T100; reference of the fold not given
[14] = target: soluble hFcγ-receptor RIa (human) (UniProt P12314); assay: SPR Biacore T100, steady state, antibody immobilised
[15] = target: soluble hFcγRIIA^131H (human) (UniProt P12318); assay: SPR (Biacore T100), steady-state affinity; antibody immobilised on CM5 chip, soluble receptor injected
[16] = target: soluble hFcγRIIA^131R (human) (UniProt P12318); assay: as above
[17] = target: soluble hFcγRIIIA FV (human) (UniProt P08637); assay: SPR (Biacore T100), steady-state affinity; antibody immobilised on CM5 chip, soluble receptor injected; column head hRIIIA158F, whose values for IEAL, ALEV and LLLFET are those of the hRIIIA FV column of Table 1
C1q (Calbiochem) [18] = target: C1q (Calbiochem) (UniProt P02745); assay: SPR (Biacore T100), steady-state affinity; antibody immobilised on CM5 chip, C1q injected

Sequence of soluble hFcγRIIA^131H (human) (P12318 34-217): as the sequence (P12318 34-217 H167R) above, with R134H counted along it
Sequence of soluble hFcγRIIIA FV (human) (P08637 17-208 F176V): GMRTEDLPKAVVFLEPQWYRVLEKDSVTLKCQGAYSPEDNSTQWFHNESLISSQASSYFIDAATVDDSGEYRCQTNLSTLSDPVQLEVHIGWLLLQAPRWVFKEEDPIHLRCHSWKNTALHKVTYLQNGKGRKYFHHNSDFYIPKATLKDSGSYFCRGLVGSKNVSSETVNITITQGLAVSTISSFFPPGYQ

Substance | Fold change in affinity [1] [fold] | Fold change in affinity [2] [fold] | Fold change in affinity [3] [fold] | Fold change in affinity (soluble hFcγRIIB (human) [4]) [fold] | Fold change in affinity [5] [fold] | Kd [6] [nM] | Kd [7] [nM] | Kd [8] [nM] | Kd (soluble hFcγRIIB (human) [9]) [nM] | Kd [10] [nM] | Kd (C1q (Calbiochem) [11]) [nM] | Fold change in affinity [12] [fold] | Fold change in affinity (C1q (Calbiochem) [13]) [fold] | Kd [14] [nM] | Kd [15] [nM] | Kd [16] [nM] | Kd [17] [nM] | Kd (C1q (Calbiochem) [18]) [nM]
4-4-20 hIgG1 Fc mutant F243I (antibody) | 1.4 | 0.4 | 0.6 | 0.9 | 0.9 | 9930 | 7050 | 5600 | 11800 | 7720 | 95.5 |  |  |  |  |  |  | 
4-4-20 hIgG1 Fc mutant P171S-S191C-G236A-K274M-T394P (antibody) | 1.2 | 0.3 | 8.4 |  | 10.1 | 11000 | 5570 | 513 | 8090 | 473 | 559 | 1.1 | 0.5 | 11.8 |  |  |  | 
4-4-20 hIgG1 Fc mutant T394P (antibody) |  |  | 0.5 | 1.1 | 1 |  |  | 5940 | 10800 | 8700 |  |  |  |  |  |  |  | 
4-4-20 hIgG1 Fc mutant L163P-S183G-K222E-G236A-N276D-S298G-D312G (antibody) | 0.8 | 0.5 | 4.1 | 1.7 | 9.9 | 15800 | 9320 | 1060 | 14000 | 479 | 392 | 0.4 |  | 66.6 |  |  |  | 
4-4-20 hIgG1 Fc mutant S239D (antibody) | 7.4 | 5.3 | 2.3 | 4.3 | 4.9 | 1690 | 307 | 1460 |  | 1480 | 248 |  | 0.6 |  |  |  |  | 
4-4-20 hIgG1 Fc mutant S298G-T299A (antibody) |  |  | 0.8 | 1.7 | 3 |  |  | 7000 | 5680 | 1690 |  |  |  |  |  |  |  | 
4-4-20 hIgG1 Fc mutant P396L (antibody) |  |  | 4 |  | 1.8 |  |  | 766 | 6040 | 4880 |  |  |  |  |  |  |  | 
4-4-20 hIgG1 Fc mutant K326E-A339T (antibody) |  | 6.7 | 1.4 | 9.3 | 8.7 |  | 528 | 3180 | 2630 | 548 | 129 |  | 3.8 |  |  |  |  | 
4-4-20 hIgG1 Fc mutant I332T (antibody) |  |  |  |  |  | 10600 | 2610 | 903 | 8540 |  | 35.5 |  |  |  |  |  |  | 
4-4-20 hIgG1 Fc mutant S298G (antibody) |  |  | 0.3 |  | 0.6 |  |  | 12900 |  | 10600 |  |  |  |  |  |  |  | 
4-4-20 hIgG1 with unmodified human IgG1 Fc (antibody) |  |  |  |  |  |  |  |  |  |  |  |  |  |  | 4300 | 4800 | 3500 | 290
4-4-20 hIgG1 Fc mutant V215I-K326E-T359A-P396L (antibody) | 2.2 | 7.2 | 0.9 | 7.6 | 12.8 | 6900 | 489 | 4790 | 3210 | 372 | 137 |  | 2.1 |  |  |  |  | 
4-4-20 hIgG1 Fc mutant V211A-F243L-K326E-D399V (antibody) |  |  | 0.6 | 4 | 6.1 |  | 3430 | 7160 | 6120 | 778 |  |  |  |  |  |  |  | 
4-4-20 hIgG1 Fc mutant K205E-V211A-G237V-F243L-V273I-T366S-M428L (antibody) | 1.2 | 0.4 | 0.4 | 1.8 | 5.6 | 11600 | 8990 | 10000 | 13400 | 851 | 292 | 0.4 |  | 43.6 |  |  |  | 
4-4-20 hIgG1 Fc mutant V188E-G236A-P244H-H268Y (antibody) |  |  |  |  |  | 14000 | 5500 |  | 10500 | 394 | 405 |  |  | 17.4 |  |  |  | 
4-4-20 hIgG1 Fc mutant G236A-K246E-F372Y-T394A-Q419L (antibody) | 1.1 | 0.6 | 9.2 | 2.5 | 9.6 | 11900 | 6760 | 467 | 9800 | 498 | 703 | 0.7 | 0.4 | 36.1 |  |  |  | 
4-4-20 hIgG1 Fc mutant P247L-M252L-V266L-Y278F-V302E-S354T (antibody) |  |  |  |  |  |  | 3070 |  | 785 | 523 |  |  |  |  |  |  |  | 
4-4-20 hIgG1 Fc mutant G236A-F243I-I332T (antibody) | 1.2 | 0.5 | 8.9 | 1.5 | 5 | 11200 | 7040 | 482 | 16700 | 944 | 25.7 | 0.4 | 0.8 | 42.3 |  |  |  | 
4-4-20 hIgG1 Fc mutant K326E (antibody) |  | 2.9 | 2.5 | 3.5 | 8.7 | 7250 | 567 | 1340 |  | 838 | 63.3 |  | 2.2 |  |  |  |  | 
4-4-20 hIgG1 Fc mutant G236A-F243I-S298G-T299A-I332T (antibody) |  |  | 7.4 |  | 18.5 |  |  | 463 | 5340 | 312 |  |  |  |  |  |  |  | 
